The record followed here is article PMC4592898, “Biochemical Characterisation of Phage Pseudomurein Endoisopeptidases PeiW and PeiP Using Synthetic Peptides” (Archaea, 2015).

Substrate in data set [1]: C[C@H](NC(=O)CC[C@H](N)C(=O)O)C(=O)Nc1ccc([N+](=O)[O-])cc1
Nature of the data set: purified protein. Type of data set: biochemical, Methanothermobacter phage psiM100. The settings on record: 60 °C, pH 7.85 Bistris propane, 10 mM CaCl2, 10 mM TCEP, aerobic, substrate range limited to about 1 x Km.

Substrate in data set [2]: C[C@H](NC(=O)CC[C@H](N)C(=O)O)C(=O)Nc1ccc([N+](=O)[O-])cc1
Put plainly: purified protein. Type of data set: biochemical, Methanobacterium phage psiM2. The note with it: 60 °C, pH 7.85 Bistris propane, 10 mM CaCl2, 10 mM TCEP, aerobic, substrate range below Km.

B1: PeiW (Methanothermobacter phage psiM100) (protein)
chain: MEVGLNEFLDMKKRYEDFKMKNKREPRYVTTKNGYKVMLPVFKDMLRRYEDFVRINGREPNYISIQPQPNGKIEIKKFRDMLRRYEDFVRINGREPNIIYLEQGKSDHVSLGTFKDMLRRYKDFVRINGREPNYISIQPQPSLKGHWTTKVIEKIGTFHDATSLYERVKKTCKYKYYYNDQVPNHVAVMRMTTSGINCTDACQLFSKVLEEMGYEVKIEHVRVKCNDGKWYGHYLLRVGGFELKDGTIWDYVSATKTGRPLGVPCCTAGFQHLGWGIVGPVYDK
notes: N-terminal His-tag kept, pET151D, E. coli BL21-Rosetta 2; 317 residues and 37,219 Da with tag; monomer
On to B1, for which, in data set [1], the Michaelis constant (Km) is given as 6.25 ± 0.44 mM and the kcat turned out to be 5.73 ± 0.22 s⁻¹.

B2: PeiP (Methanobacterium phage psiM2) (protein)
chain: MRSNSVNIETFKDMLKRYEDFKMKNKREPRVIFIRSGGGESIPLETFRDMVRRYNNFKDRYGREPRIVYVTPPEPPVPEVNENTPEYVSITQFKDMLSRYNRFKEVNGREPRVVFIYSGGGPSVSLETFKDMCKRYNQFLEENRREPRIVYVTPPEPPVPEEVREMRRVLGEFKTATQLYTLVSRRCKYKFYYNDQTPNREALKKMVTDGINCTDACQLFKPVIEGLGYSVRIEHVKVRCNDNKWYGHYFLRVAGKELASVSLPSERWTVWDYVSATKTGRPLGAPCCSRGIQHLGWGIVSPKHD
notes: N-terminal His-tag kept, pET151D, E. coli BL21-Rosetta 2; 338 residues and 39,537 Da with tag; monomer
Turning to B2, in data set [2], the Michaelis constant (Km) is 4.14 ± 0.14 mM and the kcat worked out at 1.18 ± 0.03 s⁻¹.
